This data set relates to Saccharomyces cerevisiae. Description: protein stability index of tFT-peptide fusion (C-terminal peptide) (PSI (0-1 scale)); higher = more stable (slower turnover). To be noted: temperature: 30 C. The protocol:
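MPS profiling in S. cerevisiae of the yeast C-terminome library: the last 12 aa of each annotated ORF are fused to the C-terminus of a sfGFP-mCherry timer, after a GGGS linker. Cells are FACS-sorted into 8 mCherry/sfGFP bins and deep-sequenced. PSI runs from 0 (unstable) to 1 (stable); wild type and das1Δ backgrounds, two technical replicates each.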

Where [1] appears, read: genetic background: das1 deletion.

± gives the standard deviation of the averaged measurements.

With QNDRRSVLKKYI [YER010C C-terminal 12 aa], the protein stability index turned out to be 0.69 ± 0.025 under setting [1] and 0.666 ± 0.021 (genetic background: wild type).

As for QNQDEPITENFE [TUB2 C-terminal 12 aa], the protein stability index came out at 0.718 ± 0.016 under setting [1] and 0.718 ± 0.025 (genetic background: wild type).

Turning to QPKIEINVDQYD [SPC1 C-terminal 12 aa], the protein stability index worked out at 0.691 ± 0.047 under setting [1] and 0.6919 ± 0.0036 (genetic background: wild type).

In the case of QQPNQNQNQNSK [FIP1 C-terminal 12 aa], the protein stability index by setting is: under setting [1], 0.738 ± 0.049; (genetic background: wild type) 0.676 ± 0.019.

Take QQSPHPVVDNDK [KIP2 C-terminal 12 aa]: the protein stability index by setting is: under setting [1], 0.6922 ± 0.0065; (genetic background: wild type) 0.682 ± 0.035.

On to QRIHQTLEVPNL [FAR1 C-terminal 12 aa], for which the protein stability index worked out at 0.708 ± 0.01 under setting [1] and 0.692 ± 0.06 (genetic background: wild type).

As for QRTVKQEGNKGG [GZF3 C-terminal 12 aa], the protein stability index stood at 0.712 ± 0.021 under setting [1] and 0.69986 ± 0.00047 (genetic background: wild type).

For QSILACCQESNK [LCB1 C-terminal 12 aa], the protein stability index runs as follows: under setting [1], 0.702 ± 0.0093; (genetic background: wild type) 0.645 ± 0.0071.

For the sequence QSPLMDMLAPQL [TOM6 C-terminal 12 aa], the protein stability index is 0.706 ± 0.015 under setting [1] and 0.7117 ± 0.00029 (genetic background: wild type).

Take QSQYPDVGIPAI [YAR023C C-terminal 12 aa]: the protein stability index reads like this: under setting [1], 0.7082 ± 0.0034; (genetic background: wild type) 0.669 ± 0.011.

Turning to QSSHFGQVDEII [DUR3 C-terminal 12 aa], the protein stability index by setting is: under setting [1], 0.684 ± 0.046; (genetic background: wild type) 0.726 ± 0.04.

“QSTAVFFTNKTD [YER076W-A C-terminal 12 aa]”: the protein stability index reads like this: under setting [1], 0.707 ± 0.018; (genetic background: wild type) 0.684 ± 0.046.

As to QTDGMGLVSWWE [RPC25 C-terminal 12 aa], the protein stability index runs as follows: under setting [1], 0.751 ± 0.011; (genetic background: wild type) 0.749 ± 0.041.

Turning to QTILFAAFLPPA [GPI18 C-terminal 12 aa], the protein stability index reads like this: under setting [1], 0.696 ± 0.025; (genetic background: wild type) 0.682 ± 0.008.

On to QTTFLATAIVLC [YOR331C C-terminal 12 aa], for which the protein stability index is 0.441 ± 0.018 under setting [1] and 0.4167 ± 0.0014 (genetic background: wild type).

As to QTTRMLNDLIVS [MGA2 C-terminal 12 aa], the protein stability index is, setting by setting: under setting [1], 0.664 ± 0.01; (genetic background: wild type) 0.667 ± 0.017.

For the sequence QVHPSRQELSFT [DON1 C-terminal 12 aa], the protein stability index under setting [1] amounted to 0.7176 ± 0.0016 and the protein stability index (genetic background: wild type) is 0.701 ± 0.069.

QVTWHKHSPRIQ [YKL202W C-terminal 12 aa] registered a protein stability index under setting [1] of 0.713 ± 0.024 and a protein stability index (genetic background: wild type) of 0.7036 ± 0.0056.

RCSETKQQVMNS [BTT1 C-terminal 12 aa] displayed a protein stability index under setting [1] of 0.669 ± 0.033 and a protein stability index (genetic background: wild type) of 0.691 ± 0.0026.

In the case of REGVVPPVGITN [EGO4 C-terminal 12 aa], the protein stability index by setting is: under setting [1], 0.706 ± 0.031; (genetic background: wild type) 0.66 ± 0.024.

“RELREHTKLLHS [YIL082W-A C-terminal 12 aa]”: the protein stability index stood at 0.6879 ± 0.0029 under setting [1] and 0.597 ± 0.021 (genetic background: wild type).

On to REVDDRFKVIYV [VPS35 C-terminal 12 aa], for which the protein stability index was 0.692 ± 0.018 under setting [1] and 0.695 ± 0.029 (genetic background: wild type).

Regarding RFAKGGKFVEVD [ATP18 C-terminal 12 aa], the protein stability index by setting is: under setting [1], 0.6904 ± 0.001; (genetic background: wild type) 0.6675 ± 0.0047.

On to “RFYFLSIFKYII [YBR191W-A C-terminal 12 aa]”, for which the protein stability index came out at 0.633 ± 0.023 under setting [1] and 0.331 ± 0.02 (genetic background: wild type).

Turning to RGRIAAQKRISA [RPL17B C-terminal 12 aa], the protein stability index runs as follows: under setting [1], 0.681 ± 0.014; (genetic background: wild type) 0.663 ± 0.016.

With RHAASLLGMSTK [VPS17 C-terminal 12 aa], the protein stability index was found to be 0.714 ± 0.0089 under setting [1] and 0.762 ± 0.03 (genetic background: wild type).

Regarding RHCARVKRSSRL [LYS1 C-terminal 12 aa], the protein stability index came to 0.778 ± 0.024 under setting [1] and 0.823 ± 0.046 (genetic background: wild type).

For RKEVIDALVSLS [AIM46 C-terminal 12 aa], the protein stability index is, setting by setting: under setting [1], 0.7011 ± 0.0026; (genetic background: wild type) 0.6881 ± 0.0046.

RKFFSMRSLNSR [CHL1 C-terminal 12 aa]: the protein stability index runs as follows: under setting [1], 0.696 ± 0.014; (genetic background: wild type) 0.6589 ± 0.0015.

In turn, RKLFLVVKDNIL [JIP3 C-terminal 12 aa] registered a protein stability index under setting [1] of 0.695 ± 0.016 and a protein stability index (genetic background: wild type) of 0.734 ± 0.015.

With RKNNKKSISYYG [YOR203W C-terminal 12 aa], the protein stability index under setting [1] amounted to 0.706 ± 0.011 and the protein stability index (genetic background: wild type) came to 0.731 ± 0.0063.

Regarding RKRKQSKSGLLL [NOP8 C-terminal 12 aa], the protein stability index amounted to 0.723 ± 0.024 under setting [1] and 0.699 ± 0.01 (genetic background: wild type).

Consider RKRLRTLDNWYR [RNH201 C-terminal 12 aa], for which the protein stability index by setting is: under setting [1], 0.7355 ± 0.0016; (genetic background: wild type) 0.7169 ± 0.0049.

For RLDKATKALEGF [NBA1 C-terminal 12 aa], the protein stability index under setting [1] was found to be 0.6942 ± 0.0018 and the protein stability index (genetic background: wild type) is 0.702 ± 0.033.

With RLGNLENIKIPK [AIM4 C-terminal 12 aa], the protein stability index under setting [1] turned out to be 0.737 ± 0.0074 and the protein stability index (genetic background: wild type) was 0.696 ± 0.038.

RLLSLWEVFQMA [RPC82 C-terminal 12 aa] came in with a protein stability index under setting [1] of 0.646 ± 0.027 and a protein stability index (genetic background: wild type) of 0.6182 ± 0.0037.

On to RLNNWLFGWNDL [NUP53 C-terminal 12 aa], for which the protein stability index under setting [1] is 0.785 ± 0.012 and the protein stability index (genetic background: wild type) came out at 0.707 ± 0.0094.

Consider RLQAMLNSSSSI [CEF1 C-terminal 12 aa], for which the protein stability index under setting [1] was found to be 0.681 ± 0.015 and the protein stability index (genetic background: wild type) stood at 0.669 ± 0.008.

For the sequence RLRAKSPYAWDD [YHK8 C-terminal 12 aa], the protein stability index runs as follows: under setting [1], 0.729 ± 0.0089; (genetic background: wild type) 0.721 ± 0.053.

With RLTSRSGSANRA [SAC7 C-terminal 12 aa], the protein stability index runs as follows: under setting [1], 0.706 ± 0.028; (genetic background: wild type) 0.65006 ± 5.7e-05.

In the case of RLVRNVELSKEK [MTD1 C-terminal 12 aa], the protein stability index was 0.708 ± 0.028 under setting [1] and 0.718 ± 0.062 (genetic background: wild type).

For the sequence RLWSRKEFRLGT [SNU71 C-terminal 12 aa], the protein stability index under setting [1] is 0.7 ± 0.017 and the protein stability index (genetic background: wild type) amounted to 0.7 ± 0.029.

RMVDKVEGSFSR [YDR109C C-terminal 12 aa]: the protein stability index was found to be 0.7218 ± 0.0071 under setting [1] and 0.701 ± 0.028 (genetic background: wild type).

On to RPVLSEEQRKNC [YDR344C C-terminal 12 aa], for which the protein stability index reads like this: under setting [1], 0.668 ± 0.0083; (genetic background: wild type) 0.6794 ± 0.0048.

For RQTKAFISKFMT [DBR1 C-terminal 12 aa], the protein stability index is, setting by setting: under setting [1], 0.7208 ± 0.0027; (genetic background: wild type) 0.682 ± 0.05.

RRKKKLMDELNL [ISY1 C-terminal 12 aa]: the protein stability index by setting is: under setting [1], 0.703 ± 0.04; (genetic background: wild type) 0.669 ± 0.017.

RRSFFSVFRSEK [AKL1 C-terminal 12 aa] gave a protein stability index under setting [1] of 0.68 ± 0.019 and a protein stability index (genetic background: wild type) of 0.746 ± 0.049.

On to RSHRKQPLKRKD [BRE5 C-terminal 12 aa], for which the protein stability index was 0.69 ± 0.025 under setting [1] and 0.645 ± 0.019 (genetic background: wild type).

Consider RTHAMLNDIQNI [BNR1 C-terminal 12 aa], for which the protein stability index runs as follows: under setting [1], 0.72 ± 0.022; (genetic background: wild type) 0.721 ± 0.091.

In the case of RVKSLKVGRKSQ [PAL1 C-terminal 12 aa], the protein stability index by setting is: under setting [1], 0.688 ± 0.02; (genetic background: wild type) 0.684 ± 0.0082.
